Source: doi:10.1101/680314 (bioRxiv, 2019)
Substitutions are numbered along the chain they refer to. Values belong to the binder of their own block, whether it stands above or below them.

What was measured:
GST-Nuf2-Ndc80 complex = GST-Nuf2-Ndc80 complex (UniProt Q9BZD4;O14777); assay: pull-down
Nuf2-Ndc80 complex = Nuf2-Ndc80 complex (UniProt Q9BZD4;O14777); assay: SEC
Chain of Nuf2-Ndc80 complex (Q9BZD4 whole entry, chain 1 of 2): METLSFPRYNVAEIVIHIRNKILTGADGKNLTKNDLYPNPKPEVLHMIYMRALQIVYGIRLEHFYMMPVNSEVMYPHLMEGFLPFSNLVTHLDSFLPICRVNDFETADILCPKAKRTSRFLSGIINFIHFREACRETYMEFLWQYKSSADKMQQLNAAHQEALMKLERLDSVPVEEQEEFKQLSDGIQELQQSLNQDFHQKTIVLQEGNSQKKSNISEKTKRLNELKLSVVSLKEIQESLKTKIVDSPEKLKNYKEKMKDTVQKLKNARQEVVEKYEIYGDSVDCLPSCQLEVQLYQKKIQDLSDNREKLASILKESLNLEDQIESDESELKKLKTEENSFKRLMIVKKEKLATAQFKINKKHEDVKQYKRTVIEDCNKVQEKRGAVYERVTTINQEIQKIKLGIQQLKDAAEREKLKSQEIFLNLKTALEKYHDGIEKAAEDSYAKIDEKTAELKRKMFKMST
Chain of Nuf2-Ndc80 complex (O14777 whole entry, chain 2 of 2): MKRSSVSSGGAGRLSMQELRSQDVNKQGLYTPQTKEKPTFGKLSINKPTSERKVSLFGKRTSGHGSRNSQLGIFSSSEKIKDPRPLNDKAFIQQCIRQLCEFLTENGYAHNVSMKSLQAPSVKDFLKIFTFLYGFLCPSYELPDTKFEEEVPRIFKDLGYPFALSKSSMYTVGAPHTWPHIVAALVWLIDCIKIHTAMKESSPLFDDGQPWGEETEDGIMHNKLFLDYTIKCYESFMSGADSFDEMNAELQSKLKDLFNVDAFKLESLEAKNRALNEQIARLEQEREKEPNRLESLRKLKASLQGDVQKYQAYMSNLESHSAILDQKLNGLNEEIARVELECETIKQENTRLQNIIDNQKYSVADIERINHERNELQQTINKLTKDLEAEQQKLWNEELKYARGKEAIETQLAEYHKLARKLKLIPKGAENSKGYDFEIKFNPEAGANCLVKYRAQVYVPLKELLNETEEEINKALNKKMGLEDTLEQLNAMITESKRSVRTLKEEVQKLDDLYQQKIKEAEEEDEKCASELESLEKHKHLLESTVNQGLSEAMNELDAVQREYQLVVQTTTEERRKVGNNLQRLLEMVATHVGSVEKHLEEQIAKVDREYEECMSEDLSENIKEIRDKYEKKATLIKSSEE

Chain of GST-Nuf2-Ndc80 complex (Q9BZD4 whole entry, chain 1 of 2): as the sequence (Q9BZD4 whole entry, chain 1 of 2) above
Chain of GST-Nuf2-Ndc80 complex (O14777 whole entry, chain 2 of 2): as the sequence (O14777 whole entry, chain 2 of 2) above

binding result (GST-Nuf2-Ndc80 complex): binds
B1: Ska1-Ska2-Ska3 6A complex (complex)
chain 1: MASSDLEQLCSHVNEKIGNIKKTLSLRNCGQEPTLKTVLNKIGDEIIVINELLNKLELEIQYQEQTNNSLKELCESLEEDYKDIEHLKENVPSHLPQVTVTQSCVKGSDLDPEEPIKVEEPEPVKKPPKEQRSIKEMPFITCDEFNGVPSYMKSRLTYNQINDVIKEINKAVISKYKILHQPKKSMNSVTRNLYHRFIDEETKDTKGRYFIVEADIKEFTTLKADKKFHVLLNILRHCRRLSEVRGGGLTRYVIT
chain 2: MEAEVDKLELMFQKAESDLDYIQYRLEYEIKTNHPDSASEKNPVTLLKELSVIKSRYQTLYARFKPVAVEQKESKSRICATVKKTMNMIQKLQKQTDLELSPLTKEEKTAAEQFKFHMPDL
chain 3: MDPIRSFCGKLRSLASTLDCETARLQRALDGEESDFEDYPMRILYDLHSEVQTLKDDVNILLDKARLENQEGIDFIKATKVLMEKNSMDIMKIREYFQKYGYSPRVKKNSVHEQEAINSDPELSNCENFQKTDVKDDLSDPPVASSCISEKSPRSPQLSDFGLERYIVSQVLPNPPQAVNNYKEEPVIVTPPTKQSLVKVLKAPKCALKMDDFECVAPKLEHFGISEYTMCLNEDYTMGLKNARNNKSEEAIDTESRLNDNVFATPSPIIQQLEKSDAEYTNAPLVPTFCAPGLKIPSTKNSIALVSTNYPLSKTNSSSNDLEVEDRTSLVLNSDTCFENLTDPSSPTISSYENLLRAPAPPEVTKIPEDILQLLSKYNSNLATPIAIKAVPPSKRFLKHGQNIRDVSNKEN

binding result (GST-Nuf2-Ndc80 complex): binds
B2: Ska1-Ska2-Ska3 6A complex treated with Cdk1/Cyclin B1 (complex)
chain 1: B1 chain 1
chain 2: B1 chain 2
chain 3: B1 chain 3
modifications: treated with Cdk1/Cyclin B1 plus ATP; phosphorylated residues not stated

binding result (GST-Nuf2-Ndc80 complex): binds | binding result (Nuf2-Ndc80 complex): binds
B3: Ska1-Ska2-Ska3 6D complex (complex)
chain 1: B1 chain 1
chain 2: B1 chain 2
chain 3: B1 chain 3 with A203D, A217D, A283D, A291D, A358D, A360D
